Ten molecules from patent US20250026827A1 (Alector, published 2025) can be followed below.

The labels stand for the following.
T1: mouse SIRPα on cells (mouse, UniProt P97797 32-513)
T1 construct: whole, on cells
T1 sequence (looked up): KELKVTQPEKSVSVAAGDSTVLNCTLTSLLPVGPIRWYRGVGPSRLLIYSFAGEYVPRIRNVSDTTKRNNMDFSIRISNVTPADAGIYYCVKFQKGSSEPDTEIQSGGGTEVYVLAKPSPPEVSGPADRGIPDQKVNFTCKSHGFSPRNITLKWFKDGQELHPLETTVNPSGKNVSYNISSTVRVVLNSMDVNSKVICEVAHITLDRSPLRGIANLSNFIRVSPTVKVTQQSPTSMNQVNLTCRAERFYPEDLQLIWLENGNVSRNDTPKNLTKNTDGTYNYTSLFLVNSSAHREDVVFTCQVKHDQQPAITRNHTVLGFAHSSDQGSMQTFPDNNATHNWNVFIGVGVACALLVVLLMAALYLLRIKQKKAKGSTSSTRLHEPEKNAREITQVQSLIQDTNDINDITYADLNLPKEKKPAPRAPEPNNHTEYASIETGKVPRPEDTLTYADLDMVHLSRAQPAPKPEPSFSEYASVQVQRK

T2: mouse SIRPβ1 on CHO cells (mouse)
T2 construct: Whole entry
T2 chain: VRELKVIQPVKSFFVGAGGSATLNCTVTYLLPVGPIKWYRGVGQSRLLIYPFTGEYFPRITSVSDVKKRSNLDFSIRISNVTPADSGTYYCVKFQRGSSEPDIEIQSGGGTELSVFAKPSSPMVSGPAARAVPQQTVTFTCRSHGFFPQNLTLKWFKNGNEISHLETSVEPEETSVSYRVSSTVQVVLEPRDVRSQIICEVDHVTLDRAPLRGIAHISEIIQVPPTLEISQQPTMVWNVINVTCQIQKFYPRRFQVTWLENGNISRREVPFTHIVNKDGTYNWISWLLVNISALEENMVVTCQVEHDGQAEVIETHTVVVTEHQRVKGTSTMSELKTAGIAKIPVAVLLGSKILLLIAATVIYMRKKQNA

T3: mouse SIRPα D1-Fc (mouse, UniProt P97797 32-150, limits assumed)
T3 construct: domain: D1
T3 sequence (looked up): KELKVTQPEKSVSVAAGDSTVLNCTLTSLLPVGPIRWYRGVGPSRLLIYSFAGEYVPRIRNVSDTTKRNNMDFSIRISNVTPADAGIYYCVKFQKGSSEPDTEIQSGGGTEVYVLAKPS

B1: SB-16 (antibody, V domains shown)
VH: QVQLVQSGAEVKKPGSSVKVSCKASGGTFSSYAISWVRQAPGQGLEWMGSIIPIFGTANYAQKFQGRVTITADESTSTAYMELSSLRSEDTAVYYCARANYYDSSGYSGLDLWGRGTLVTVSS
VL: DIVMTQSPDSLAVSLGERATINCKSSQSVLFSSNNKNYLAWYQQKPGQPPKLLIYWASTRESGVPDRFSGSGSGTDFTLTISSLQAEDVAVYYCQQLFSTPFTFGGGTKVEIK
notes: IgG
B2: SB-22 (antibody, V domains shown)
VH: EVQLVESGGGLVQPGGSLRLSCAASGFTVSSNYMSWVRQAPGKGLEWVSVIYSDGSTYYADSVKGRFTISRDNSKNTLYLQMNSLRAEDTAVYYCARPTRYGYDRLGMDVWGQGTTVTVSS
VL: DIQMTQSPSSVSASVGDRVTITCRASQGISSWLAWYQQKPGKAPKLLIYAASNLQSGVPSRFSGSGSGTDFTLTISSLQPEDFATYYCQQGNSYPITFGGGTKVEIK
notes: IgG
B3: SB-23 (antibody, V domains shown)
VH: QVQLVQSGAEVKKPGSSVKVSCKASGGTFSSYAISWVRQAPGQGLEWMGGIAPIFGTANYAQKFQGRVTITADESTSTAYMELSSLRSEDTAVYYCARTTYRDYYMDVWGKGTTVTVSS
VL: B2 VL with V11L, G28S, W32Y, A34N, N53S, G91A, N92Y, S93P, I96L
notes: IgG
B4: SB-25 (antibody, V domains shown)
VH: QVQLVQSGAEVKKPGSSVKVSCKASGGTFSSLAISWVRQAPGQGLEWMGGIIPIFGTANYAQKFQGRVTITADESTSTAYMELSSLRSEDTAVYYCARSGGDYSGYDYASGMDVWGQGTTVTVSS
VL: B2 VL with N53S, G91V, Y94F, I96W
notes: IgG
B5: SB-24 (antibody, V domains shown)
VH: QVQLQESGPGLVKPSETLSLTCAVSGYSISSGYYWAWIRQPPGKGLEWIGSIYHSGSTYYNPSLKSRVTISVDTSKNQFSLKLSSVTAADTAVYYCARDRSRGYPVYGMDVWGQGTTVTVSS
VL: EIVMTQSPATLSVSPGERATLSCRASQSVSSNLAWYQQKPGQAPRLLIYGASTRATGIPARFSGSGSGTEFTLTISSLQSEDFAVYYCQQLNIHPWTFGGGTKVEIK
notes: IgG
B6: SB-18 (antibody, V domains shown)
VH: QVQLVQSGAEVKKPGSSVKVSCKASGGTFSSYAISWVRQAPGQGLEWMGGIIPIFGTANYAQKFQGRVTITADESTSTAYMELSSLRSEDTAVYYCARAKPRGDYGMDVWGQGTTVTVSS
VL: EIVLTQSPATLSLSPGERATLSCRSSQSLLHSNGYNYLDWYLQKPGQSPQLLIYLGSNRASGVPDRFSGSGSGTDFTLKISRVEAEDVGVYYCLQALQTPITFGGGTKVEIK
notes: IgG
B7: SB-27 (antibody, V domains shown)
VH: QVQLVQSGAEVKKPGSSVKVSCKASGGTFSSYAISWVRQAPGQGLEWMGGIIPIFGTANYAQKFQGRVTITADESTSTAYMELSSLRSEDTAVYYCARQDLGSSHWHFDLWGRGTLVTVSS
VL: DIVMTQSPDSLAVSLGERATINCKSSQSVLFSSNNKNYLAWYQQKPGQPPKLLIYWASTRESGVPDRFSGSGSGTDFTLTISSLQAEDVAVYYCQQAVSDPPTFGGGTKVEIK
notes: IgG
B8: SB-7 (antibody, V domains shown)
VH: QVQLVQSGAEVKKPGSSVKVSCKASGGTFSSYAISWVRQAPGQGLEWMGGIIPIFGTASYAQKFQGRVTITADESTSTAYMELSSLRSEDTAVYYCARETRQDSAHYYGMDVWGQGTTVTVSS
VL: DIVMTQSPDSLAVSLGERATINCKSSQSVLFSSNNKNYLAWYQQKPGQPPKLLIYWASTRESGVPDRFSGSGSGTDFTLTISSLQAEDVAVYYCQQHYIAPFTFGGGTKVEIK
notes: IgG
B9: SB-20 (antibody, V domains shown)
VH: B8 VH with G50S, S59N, E99D, T100G, Q102E, D103Y, S104G, A105G
VL: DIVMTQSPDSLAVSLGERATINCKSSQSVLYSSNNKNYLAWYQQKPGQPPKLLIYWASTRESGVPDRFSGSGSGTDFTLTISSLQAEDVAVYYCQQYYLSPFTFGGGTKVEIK
notes: IgG
B10: SB-36 (antibody, V domains shown)
VH: QVQLVQSGAEVKKPGASVKVSCKASGYTFTSYYMHWVRQAPGQGLEWMGIINPSGGSTSYAQKFQGRVTMTRDTSTSTVYMELSSLRSEDTAVYYCAREGPEQLWYLDYWGQGTLVTVSS
VL: DIQMTQSPSSVSASVGDRVTITCRASQGISSWLAWYQQKPGKAPKLLIYAASSLQSGVPSRFSGSGSGTDFTLTISSLQPEDFATYYCQQAFSHRTFGGGTKVEIK
notes: IgG

Substitutions are numbered along the chain they refer to.
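For FOB in this document: antibodies tested at 1 µg/ml for 30 min on ice against receptor-expressing cells, detected with a PE-labelled secondary antibody, read as mean fluorescence intensity relative to background.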

T5 sequence (O00241 30-398): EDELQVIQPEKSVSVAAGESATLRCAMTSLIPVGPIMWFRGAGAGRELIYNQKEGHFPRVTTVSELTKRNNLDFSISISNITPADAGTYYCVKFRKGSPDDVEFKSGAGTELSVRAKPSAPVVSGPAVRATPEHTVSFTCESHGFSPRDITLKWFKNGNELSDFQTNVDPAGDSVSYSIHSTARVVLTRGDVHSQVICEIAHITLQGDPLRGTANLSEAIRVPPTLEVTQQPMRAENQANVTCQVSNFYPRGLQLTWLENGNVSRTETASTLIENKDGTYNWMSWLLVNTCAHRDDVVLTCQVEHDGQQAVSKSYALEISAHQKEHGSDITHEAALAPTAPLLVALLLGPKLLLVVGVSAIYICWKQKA

The target in one assay is T1, mouse SIRPα on cells. In words: flow cytometry.
For the molecule B1, the binding result is “no binding (tested: 1 ug/ml)”.

As for B2, the binding result is “no binding (tested: 1 ug/ml)”.

Regarding B3, the binding result was “no binding (tested: 1 ug/ml)”.

Turning to B4, the binding result is given as “no binding (tested: 1 ug/ml)”.

As for B5, the binding result was “no binding (tested: 1 ug/ml)”.

B6: the binding result is “no binding (tested: 1 ug/ml)”.

Take B7: the binding result is listed as “no binding (tested: 1 ug/ml)”.

Take B8: the binding result is “no binding (tested: 1 ug/ml)”.

On to B9, for which the binding result is “no binding (tested: 1 ug/ml)”.

For B10, the binding result is recorded as “no binding (tested: 1 ug/ml)”.

The next assay concerns the target T2, mouse SIRPβ1 on CHO cells. As to the kind of experiment: flow cytometry.
B1: the binding result is “no binding (tested: 1 ug/ml)”.

Take B2: the binding result is reported as “no binding (tested: 1 ug/ml)”.

With B3, the binding result is on record as “no binding (tested: 1 ug/ml)”.

On to B4, for which the binding result is “no binding (tested: 1 ug/ml)”.

As for B5, the binding result is “no binding (tested: 1 ug/ml)”.

On to B6, for which the binding result is recorded as “no binding (tested: 1 ug/ml)”.

As to B7, the binding result is recorded as “no binding (tested: 1 ug/ml)”.

B8: the binding result is listed as “no binding (tested: 1 ug/ml)”.

In the case of B9, the binding result is “no binding (tested: 1 ug/ml)”.

Take B10: the binding result is given as “no binding (tested: 1 ug/ml)”.

The target in another assay is T4, human SIRPα on cells (human, UniProt P78324 31-504).
T4 construct: Whole entry
In words: flow cytometry.
Turning to B1, the binding result was “no binding (tested: 1 ug/ml)”.

With B2, the binding result was “no binding (tested: 1 ug/ml)”.

In the case of B3, the binding result is reported as “no binding (tested: 1 ug/ml)”.

Take B4: the binding result is on record as “no binding (tested: 1 ug/ml)”.

In the case of B5, the binding result is reported as “no binding (tested: 1 ug/ml)”.

Turning to B6, the binding result is “no binding (tested: 1 ug/ml)”.

Take B7: the binding result is “no binding (tested: 1 ug/ml)”.

As to B8, the binding result was “no binding (tested: 1 ug/ml)”.

As for B9, the binding result is given as “no binding (tested: 1 ug/ml)”.

The target in another assay is T1, mouse SIRPα on cells. As to the kind of experiment: flow cytometry. This is another data set of the same source.
The molecule B1 displayed an FOB of 1.4 fold over background.

B2 yielded an FOB of 0.9 fold over background.

As for B3, the FOB is 1.4 fold over background.

B4 gave an FOB of 1.3 fold over background.

B5 displayed an FOB of 1.1 fold over background.

Molecule B6 had an FOB of 0.9 fold over background.

For B7, the FOB stood at 1.1 fold over background.

For B8, the FOB came out at 1 fold over background.

In the case of B9, the FOB was 1.2 fold over background.

The molecule B10 displayed an FOB of 1.2 fold over background.

The next assay addresses T5, human SIRPβ1 isoform 1 on cells (human, UniProt O00241 30-398).
T5 construct: On CHO cells (low level), on BWZ/BW5147.G.1.4 cells (reporter cells co-express human DAP12) or on primary human myeloid cells; also called huSIRPβ1; BWZ-huSIRPβ1
As to the kind of experiment: flow cytometry.
Regarding B1, the FOB worked out at 2 fold over background.

B2 gave an FOB of 1.4 fold over background.

Molecule B3 yielded an FOB of 2.4 fold over background.

The molecule B4 returned an FOB of 2.1 fold over background.

Regarding B5, the FOB was found to be 3.7 fold over background.

The molecule B6 displayed an FOB of 2.8 fold over background.

As for B7, the FOB worked out at 3.9 fold over background.

Turning to B8, the FOB was 3.7 fold over background.

Take B9: the FOB worked out at 2.6 fold over background.

With B10, the FOB stood at 1.7 fold over background.

Another assay deals with T2, mouse SIRPβ1 on CHO cells. In words: flow cytometry. The source holds these as a separate data set.
B1 yielded an FOB of 1.5 fold over background.

B2 registered an FOB of 1.4 fold over background.

In the case of B3, the FOB is 1.5 fold over background.

With B4, the FOB was determined as 1.2 fold over background.

As for B5, the FOB came to 1.3 fold over background.

In the case of B6, the FOB turned out to be 1.2 fold over background.

In turn, B7 displayed an FOB of 1.3 fold over background.

In the case of B8, the FOB was 1.5 fold over background.

In turn, B9 registered an FOB of 1.3 fold over background.

Molecule B10 displayed an FOB of 1.1 fold over background.

The target of another assay is T4, human SIRPα on cells. As to the kind of experiment: flow cytometry. The source holds these as a separate data set.
B1 gave an FOB of 2 fold over background.

In the case of B2, the FOB came to 1.9 fold over background.

B3: the FOB turned out to be 1.9 fold over background.

B4: the FOB worked out at 2.5 fold over background.

Take B5: the FOB amounted to 2.5 fold over background.

The molecule B6 displayed an FOB of 2.4 fold over background.

For the molecule B7, the FOB came to 2.4 fold over background.

Molecule B8 yielded an FOB of 2 fold over background.

For the molecule B9, the FOB turned out to be 2.2 fold over background.

Regarding B10, the FOB was 2.1 fold over background.

Another assay has as its target T6, human SIRPα domain 1 (D1) Fc fusion (human, UniProt P78324 32-149).
T6 construct: also called human SIRPα D1-Fc; Human SIRPα Fc; not shown: C-terminal human IgG1 Fc
As to the kind of experiment: Octet.
For B1, the binding result is reported as “no binding (tested: 100 nM)”.

Regarding B2, the binding result is given as “no binding (tested: 100 nM)”.

In the case of B3, the binding result is given as “no binding (tested: 100 nM)”.

Regarding B4, the binding result is given as “no binding (tested: 100 nM)”.

For the molecule B5, the binding result is “no binding (tested: 100 nM)”.

For the molecule B6, the binding result is given as “no binding (tested: 100 nM)”.

Consider B7, for which the binding result was “no binding (tested: 100 nM)”.

Consider B8, for which the binding result is “no binding (tested: 100 nM)”.

As for B9, the binding result was “no binding (tested: 100 nM)”.

Another assay concerns the target T3, mouse SIRPα D1-Fc. As to the kind of experiment: Octet.
Regarding B1, the binding result is recorded as “no binding (tested: 100 nM)”.

As to B2, the binding result was “no binding (tested: 100 nM)”.

On to B3, for which the binding result was “no binding (tested: 100 nM)”.

Consider B4, for which the binding result was “no binding (tested: 100 nM)”.

As to B5, the binding result is “no binding (tested: 100 nM)”.

B6: the binding result was “no binding (tested: 100 nM)”.

As for B7, the binding result was “no binding (tested: 100 nM)”.

B8: the binding result was “no binding (tested: 100 nM)”.

Turning to B9, the binding result is reported as “no binding (tested: 100 nM)”.

Regarding B10, the binding result is on record as “no binding (tested: 100 nM)”.
